Values of other authors, collected in patent publication US20200069786A1, “COMPOSITION AND PROCESS FOR PREPARING VACCINE” (TREOS BIO ZRT., priority 2018, published 2020).
Like-named read-outs stand apart in the source and are kept apart here.

Tested on: TSA
[1] = TSA expression rate in MELANOMA

B1: IL13RA2 (protein, UniProt Q14627 27-380, looked up)
Interleukin-13 receptor …: DTEIKVNPPQDFEIVDPGYLGYLYLQWQPPLSLDHFKECTVEYELKYRNIGSETWKTIITKNLHYKDGFDLNKGIEAKIHTLLPWQCTNGSEVQSSWAETTYWISPQGIPETKVQDMDCVYYNWQYLLCSWKPGIGVLLDTNYNLFYWYEGLDHALQCVDYIKADGQNIGCRFPYLEASDYKDFYICVNGSSENKPIRSSYFTFQLQNIVKPLPPVYLTFTRESSCEIKLKWSIPLGPIPARCFDYEIEIREDDTTLVTATVENETYTLKTTNETRQLCFVVRSKVNIYCSDDGIWSEWSDKQCWEGEDLSKKTLLRFWLPFGFILILVIFVTGLLLRKPNTYPKMIPEFFCDT
TSA Expression Rate (ER) (BRAIN): 95% | Expression Rate (ER) % (TSA expression rate in LUNG cancer): 12% | Expression Rate (ER) % (TSA expression rate in PEDIATRIC): 58%

B2: PBK (protein, UniProt Q96KB5 1-322, looked up)
Lymphokine-activated killer …: MEGISNFKTPSKLSEKKKSVLCSTPTINIPASPFMQKLGFGTGVNVYLMKRSPRGLSHSPWAVKKINPICNDHYRSVYQKRLMDEAKILKSLHHPNIVGYRAFTEANDGSLCLAMEYGGEKSLNDLIEERYKASQDPFPAAIILKVALNMARGLKYLHQEKKLLHGDIKSSNVVIKGDFETIKICDVGVSLPLDENMTVTDPEACYIGTEPWKPKEAVEENGVITDKADIFAFGLTLWEMMTLSIPHINLSNDDDDEDKTFDESDFDDEAYYAALGTRPPINMEELDESYQKVIELFSVCTNEDPKDRPSAAHIVEALETDV
TSA Expression Rate (ER) (BRAIN): 100% | TSA Expression Rate (ER) (HCC): 64% | Expression Rate (ER) % (TSA expression rate in BLADDER cancer): 43%

B3: ZNF165 (protein, UniProt P49910 1-485, looked up)
Zinc finger protein 165: MATEPKKAAAQNSPEDEGLLIVKIEEEEFIHGQDTCLQRSELLKQELCRQLFRQFCYQDSPGPREALSRLRELCCQWLKPEIHTKEQILELLVLEQFLTILPGDLQAWVHEHYPESGEEAVTILEDLERGTDEAVLQVQAHEHGQEIFQKKVSPPGPALNVKLQPVETKAHFDSSEPQLLWDCDNESENSRSMPKLEIFEKIESQRIISGRISGYISEASGESQDICKSAGRVKRQWEKESGESQRLSSAQDEGFGKILTHKNTVRGEIISHDGCERRLNLNSNEFTHQKSCKHGTCDQSFKWNSDFINHQIIYAGEKNHQYGKSFKSPKLAKHAAVFSGDKTHQCNECGKAFRHSSKLARHQRIHTGERCYECNECGKSFAESSDLTRHRRIHTGERPFGCKECGRAFNLNSHLIRHQRIHTREKPYECSECGKTFRVSSHLIRHFRIHTGEKPYECSECGRAFSQSSNLSQHQRIHMRENLLM
TSA Expression Rate (ER) (BRAIN): 100% | TSA Expression Rate (ER) (HCC): 52% | TSA Expression Rate (ER) (LUNG): 21% | Expression Rate (ER) % (TSA expression rate in CRC): 43% | Expression Rate (ER) % (TSA expression rate in GASTRIC cancer): 9% | Expression Rate (ER) % (TSA expression rate in LEUKEMIAS): 52%

B4: CEA (protein, UniProt P06731 35-685, looked up)
Cell adhesion molecule CEACAM5: KLTIESTPFNVAEGKEVLLLVHNLPQHLFGYSWYKGERVDGNRQIIGYVIGTQQATPGPAYSGREIIYPNASLLIQNIIQNDTGFYTLHVIKSDLVNEEATGQFRVYPELPKPSISSNNSKPVEDKDAVAFTCEPETQDATYLWWVNNQSLPVSPRLQLSNGNRTLTLFNVTRNDTASYKCETQNPVSARRSDSVILNVLYGPDAPTISPLNTSYRSGENLNLSCHAASNPPAQYSWFVNGTFQQSTQELFIPNITVNNSGSYTCQAHNSDTGLNRTTVTTITVYAEPPKPFITSNNSNPVEDEDAVALTCEPEIQNTTYLWWVNNQSLPVSPRLQLSNDNRTLTLLSVTRNDVGPYECGIQNELSVDHSDPVILNVLYGPDDPTISPSYTYYRPGVNLSLSCHAASNPPAQYSWLIDGNIQQHTQELFISNITEKNSGLYTCQANNSASGHSRTTVKTITVSAELPKPSISSNNSKPVEDKDAVAFTCEPEAQNTTYLWWVNGQSLPVSPRLQLSNGNRTLTLFNVTRNDARAYVCGIQNSVSANRSDPVTLDVLYGPDTPIISPPDSSYLSGANLNLSCHSASNPSPQYSWRINGIPQQHTQVLFIAKITPNNNGTYACFVSNLATGRNNSIVKSITVSASGTSPGLSA
TSA Expression Rate (ER) (PANCREATIC): 60%

B5: ODF4 (protein, UniProt Q2M2E3 1-257, looked up)
Outer dense fiber protein 4: MDAEYSGNEFPRSEGERDQHQRPGKERKSGEAGWGTGELGQDGRLLSSTLSLSSNRSLGQRQNSPLPFQWRITHSFRWMAQVLASELSLVAFILLLVVAFSKKWLDLSRSLFYQRWPVDVSNRIHTSAHVMSMGLLHFYKSRSCSDLENGKVTFIFSTLMLFPINIWIFELERNVSIPIGWSYFIGWLVLILYFTCAILCYFNHKSFWSLILSHPSGAVSCSSSFGSVEESPRAQTITDTPITQEGVLDPEQKDTHV
TSA Expression Rate (ER) (BREAST): 63% | Expression Rate (ER) % (TSA expression rate in PROSTATE cancer): 0%

B6: TYR (protein, UniProt P14679 19-529, looked up)
Tyrosinase: HFPRACVSSKNLMEKECCPPWSGDRSPCGQLSGRGSCQNILLSNAPLGPQFPFTGVDDRESWPSVFYNRTCQCSGNFMGFNCGNCKFGFWGPNCTERRLLVRRNIFDLSAPEKDKFFAYLTLAKHTISSDYVIPIGTYGQMKNGSTPMFNDINIYDLFVWMHYYVSMDALLGGSEIWRDIDFAHEAPAFLPWHRLFLLRWEQEIQKLTGDENFTIPYWDWRDAEKCDICTDEYMGGQHPTNPNLLSPASFFSSWQIVCSRLEEYNSHQSLCNGTPEGPLRRNPGNHDKSRTPRLPSSADVEFCLSLTQYESGSMDKAANFSFRNTLEGFASPLTGIADASQSSMHNALHIYMNGTMSQVQGSANDPIFLLHHAFVDSIFEQWLRRHRPLQEVYPEANAPIGHNRESYMVPFIPLYRNGDFFISSKDLGYDYSYLQDSDPDSFQDYIKSYLEQASRIWSWLLGAAMVGAVLTALLAGLVSLLCRHKRKQLPEEKQPLLMEKEDYHSLYQSHL
TSA Expression Rate (ER) (BRAIN): 91% | TSA Expression Rate (ER) (THYROID): 0% | Expression Rate (ER) % [1]: 87%

B7: KIF20A (protein, UniProt O95235 2-890, looked up)
Kinesin-like protein KIF20A: SQGILSPPAGLLSDDDVVVSPMFESTAADLGSVVRKNLLSDCSVVSTSLEDKQQVPSEDSMEKVKVYLRVRPLLPSELERQEDQGCVRIENVETLVLQAPKDSFALKSNERGIGQATHRFTFSQIFGPEVGQASFFNLTVKEMVKDVLKGQNWLIYTYGVTNSGKTHTIQGTIKDGGILPRSLALIFNSLQGQLHPTPDLKPLLSNEVIWLDSKQIRQEEMKKLSLLNGGLQEEELSTSLKRSVYIESRIGTSTSFDSGIAGLSSISQCTSSSQLDETSHRWAQPDTAPLPVPANIRFSIWISFFEIYNELLYDLLEPPSQQRKRQTLRLCEDQNGNPYVKDLNWIHVQDAEEAWKLLKVGRKNQSFASTHLNQNSSRSHSIFSIRILHLQGEGDIVPKISELSLCDLAGSERCKDQKSGERLKEAGNINTSLHTLGRCIAALRQNQQNRSKQNLVPFRDSKLTRVFQGFFTGRGRSCMIVNVNPCASTYDETLHVAKFSAIASQLVHAPPMQLGFPSLHSFIKEHSLQVSPSLEKGAKADTGLDDDIENEADISMYGKEELLQVVEAMKTLLLKERQEKLQLEMHLRDEICNEMVEQMQQREQWCSEHLDTQKELLEEMYEEKLNILKESLTSFYQEEIQERDEKIEELEALLQEARQQSVAHQQSGSELALRRSQRLAASASTQQLQEVKAKLQQCKAELNSTTEELHKYQKMLEPPPSAKPFTIDVDKKLEEGQKNIRLLRTELQKLGESLQSAERACCHSTGAGKLRQALTTCDDILIKQDQTLAELQNNMVLVKLDLRKKAACIAEQYHTVLKLQGQVSAKKRLGTNQENQQPNQQPPGKKPFLRNLLPRTPTCQSSTDCSPYARILRSRRSPLLKSGPFGKKY
TSA Expression Rate (ER) (BRAIN): 58% | TSA Expression Rate (ER) (LUNG): 95% | TSA Expression Rate (ER) (OVARIAN): 65% | TSA Expression Rate (ER) (PANCREATIC): 63% | Expression Rate (ER) % (TSA expression rate in Cervical cancer): 35% | Expression Rate (ER) % (TSA expression rate in Esophageal): 15% | Expression Rate (ER) % [1]: 64%

B8: GAGE-2 (protein, UniProt Q6NT46 1-116, looked up)
G antigen 2A: MSWRGRSTYRPRPRRYVEPPEMIGPMRPEQFSDEVEPATPEEGEPATQRQDPAAAQEGQDEGASAGQGPKPEAHSQEQGHPQTGCECEDGPDGQEMDPPNPEEVKTPEEGEKQSQC
TSA Expression Rate (ER) (PANCREATIC): 17%
